According to EP3505186B1, “NUCLEOPHILIC CATALYSTS FOR OXIME LINKAGE” (Takeda Pharmaceutical Company Limited, priority 2010, dated 2012):

Experiments:
[1] = Specific activity of the Prolia conjugate: biological activity by methods known in the art and total protein (Bradford)
Protocol: The free Prolia is removed by means of cation exchange chromatography (CEC). The reaction mixture is diluted with 20 ml Buffer A (50 mM Hepes, pH 6.5) and loaded onto a 20 ml HiPrep SPFF 16/10 column (GE Healthcare, Fairfield, CT) pre-equilibrated with Buffer A. Then the column is eluted with Buffer B (50 mM Hepes, 1 M NaCl, pH 6.5). Free Prolia is eluted by washing the column with 25 % Buffer B and the conjugate at 50 % Buffer B. The conductivity of the conjugate containing fractions is subsequently raised to -190 mS/cm with Buffer C (50 mM Hepes, 5 M NaCl, pH 6.9) and loaded onto a 20 ml HiPrep Butyl FF 16/10 column (GE Healthcare, Fairfield, CT) pre-equilibrated with Buffer D (50 mM Hepes, 3 M NaCl, pH 6.9). Free PSA-reagent is washed out within 5 CV Buffer D. Subsequently, the conjugate is eluted with 100 % Buffer E (50 mM Hepes, pH 6.9). The conjugate containing fractions are concentrated by UF/DF using a 10 kD membrane made of regenerated cellulose (88 cm2, cut-off 10 kD, Millipore). The final diafiltration step is performed against histidine buffer, pH 6.9 containing 150 mM NaCl. The preparation is analytically characterized by measuring total protein (Bradford) and biological activity according to methods known in the art. For the PSA-Prolia conjugate a specific activity of > 50 % in comparison to native Prolia is determined. The conjugate is additionally analytically characterized by Size Exclusion HPLC using a Agilent 1200 HPLC system equipped with a Shodex KW 803 column under conditions as previously described (Kolarich et al, Transfusion 2006;46:1959-77). It is shown that the preparation contains no free Prolia.
The free Prolia is removed by means of cation exchange chromatography (CEC). The reaction mixture is diluted with 20 ml Buffer A (50 mM Hepes, pH 6.5) and loaded onto a 20 ml HiPrep SPFF 16/10 column (GE Healthcare, Fairfield, CT) pre-equilibrated with Buffer A. Then the column is eluted with Buffer B (50 mM Hepes, 1 M NaCl, pH 6.5). Free Prolia is eluted by washing the column with 25 % Buffer B and the conjugate at 5 0% Buffer B. The conductivity of the conjugate containing fractions is subsequently raised to -190 mS/cm with Buffer C (50 mM Hepes, 5 M NaCl, pH 6.9) and loaded onto a 20 ml HiPrep Butyl FF 16/10 column (GE Healthcare, Fairfield, CT) pre-equilibrated with Buffer D (50 mM Hepes, 3 M NaCl, pH 6.9). Free PSA-reagent is washed out within 5 CV Buffer D. Subsequently the conjugate is eluted with 100% Buffer E (50 mM Hepes, pH 6.9). The conjugate containing fractions are concentrated by UF/DF using a 10 kD membrane made of regenerated cellulose (88 cm^2, cut-off 10 kD / Millipore). […] For the PSA-Prolia conjugate a specific activity of > 50 % in comparison to native Prolia is determined. […]

[2] = in vitro studies; Bombhard and Herbold 2005; cited from earlier work
rats = settings: long-term dietary treatment of rats; Goodman et al. 1984; cited from earlier work
[3] = Harrison and Jollow 1987; cited from earlier work

PSA-Prolia conjugate: Prolia polysialylated with 20 kD aminooxy-PSA reagent, m-toluidine as catalyst
specific activity in comparison to native Prolia ([1]; Reference Example 30 Method 1, alternative (oxidation, then m-toluidine and 20 kD aminooxy-PSA, 5-fold)): > 50%
specific activity in comparison to native Prolia ([1]; Reference Example 30 Method 3, alternative (simultaneous, 20 kD aminooxy-PSA, 5 fold)): > 50%

PEG-Prolia conjugate: Prolia PEGylated with a linear 20 kD aminooxy PEGylation reagent, m-toluidine as catalyst
specific activity in comparison to native Prolia ([1]; Reference Example 44 Method 1, alternative (oxidation, then m-toluidine and 20 kD aminooxy-PEG, 5-fold)): > 50%
specific activity in comparison to native Prolia ([1]; Reference Example 44 Method 3, alternative (simultaneous, 20 kD aminooxy-PEG, 5-fold)): > 50%

Nc1ccccc1 [aniline]
chromosome mutations / genotoxic activity [2]: potential to induce chromosome mutations
tumors in the spleen (rats): induce tumors in the spleen
methemoglobinemia [3]: induce methemoglobinemia
